Patent publication US6410711

B1: wild type CD40 ligand/zipper domain fusion protein (WT) expressed in yeast (ligand)
chain: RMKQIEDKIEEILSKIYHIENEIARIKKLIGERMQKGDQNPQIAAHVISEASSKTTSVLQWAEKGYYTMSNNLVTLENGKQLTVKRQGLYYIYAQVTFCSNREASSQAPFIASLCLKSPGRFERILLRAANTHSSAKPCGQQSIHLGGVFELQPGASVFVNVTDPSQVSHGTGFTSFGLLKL
B2: trimeric murine CD40-L (ligand)
chain: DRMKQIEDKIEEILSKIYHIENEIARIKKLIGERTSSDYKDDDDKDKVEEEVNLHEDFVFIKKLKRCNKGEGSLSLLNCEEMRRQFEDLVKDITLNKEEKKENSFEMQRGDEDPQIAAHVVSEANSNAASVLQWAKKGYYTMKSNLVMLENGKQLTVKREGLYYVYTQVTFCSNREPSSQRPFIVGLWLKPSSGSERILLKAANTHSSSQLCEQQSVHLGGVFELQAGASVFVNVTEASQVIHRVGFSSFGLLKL
notes: The leader is not part of the secreted protein; Made in CHO cells; also called Murine Trimer; muCD40LT

Tests used:
[1] = target: T1, CD40/Fc fusion protein (human, UniProt P25942 21-193); test: biosensor assay substantially as Example 22 (captured CD40/Fc); yeast-expressed protein
T1 construct: extracellular domain; also called C40/Fc; s CD40/Fc; not shown: remainder of the human IgG1 Fc region, joined at a Bgl II site near the beginning of the hinge
T1 sequence (P25942 other isoform, or with tags, fused parts or gaps limits assumed): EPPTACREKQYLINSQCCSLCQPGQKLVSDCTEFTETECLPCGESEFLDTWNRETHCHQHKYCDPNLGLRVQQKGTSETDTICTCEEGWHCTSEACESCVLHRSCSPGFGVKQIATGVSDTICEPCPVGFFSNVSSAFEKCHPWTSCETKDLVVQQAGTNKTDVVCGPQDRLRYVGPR
Procedure: The biosensor chips were coated with goat anti-human IgG_1 Fc, which was used to bind CD40/Fc (prepared as described in Example 1) to the chip. The different constructs of CD40-L were then added at increasing concentrations; the chip was regenerated between the different constructs by the addition of sodium hydroxide. Two separate experiments were performed. In the first, the binding of a dimeric human CD40-L (Example 14), trimeric human CD40-L (Example 15), dimeric murine CD40-L (prepared substantially as described in Example 14 for human CD40-L/FC) and trimeric murine CD40-L (prepared substantially as described for the human CD40-L in Example 15) were compared. In the second experiment, the binding of trimeric human CD40-L was compared to the binding of two different preparations of monomeric human CD40-L prepared as described in Example 18. The resultant data were analyzed to determine the affinity and association rate constants of the different CD40-L constructs. Results are shown in Table 12 below, and in FIGS. 19A–19B
[a]Mutations are given as the residue present in the native peptide, the residue number, and the residue present in the mutein. Residue numbers for zipper domain mutations are relative to SEQ ID NO: 17. [b]Residue numbers for mutations in the CD40L domain are relative to SEQ ID NO: 12. […]

[2] = target: T1, CD40/Fc fusion protein; test: biosensor (BIAcore), CD40/Fc captured by goat anti-human IgG1 Fc; experiment 1
Procedure: (§1) This example illustrates the binding affinities of several different CD40-L constructs. Affinity experiments were conducted by biospecific interaction analysis (BIA) using a biosensor, an instrument that combines a biological recognition mechanism with a sensing device or transducer. An exemplary biosensor is BIAcore™, from Pharmacia Biosensor AB (Uppsala, Sweden; see Fägerstam L. G., *Techniques in Protein Chemistry II*, ed. J. J. Villafranca, Acad. Press, NY, 1991). BIAcore™ uses the optical phenomenon surface plasmon resonance (Kretschmann and Raether, *Z. Naturforschung, Teil. A* 23:2135, 1968) to monitor the interaction of two biological molecules. Molecule pairs having affinity constants in the range 10^5 to 10^10 M^-1, and association rate constants in the range of 10^3 to 10^6 M^-1s^-1, are suitable for characterization with BLAcore™.
(§2) The biosensor chips were coated with goat anti-human IgG_1 Fc, which was used to bind CD40/Fc (prepared as described in Example 1) to the chip. The different constructs of CD40-L were then added at increasing concentrations; the chip was regenerated between the different constructs by the addition of sodium hydroxide. Two separate experiments were performed. […] The resultant data were analyzed to determine the affinity and association rate constants of the different CD40-L constructs. […]

[3] = target: T1, CD40/Fc fusion protein; test: biosensor (BIAcore), CD40/Fc captured by goat anti-human IgG1 Fc; experiment 1; K1 (site 1)
Procedure: as §1, §2

[4] = target: T1, CD40/Fc fusion protein; test: biosensor (BIAcore), CD40/Fc captured by goat anti-human IgG1 Fc; experiment 1; K2 (site 2)
Procedure: as §1, §2

Binder	Ka [1]	Site 1 (mol/mol CD40/Fc) [2]	Site 2 (mol/mol CD40/Fc) [2]	Ka [3]	Ka [4]
B1	7.7e+07 M⁻¹				
B2		0.02 mol/mol CD40/Fc	0.44 mol/mol CD40/Fc	6e+10 M⁻¹	1.6e+08 M⁻¹
